Tests used:
Format in all cases: binding
[1] = tested on: GST-fused TGFβ (type III transforming growth factor β receptor) C-tail; experiment: GST-pull down, TGFβ C-tail; conditions: non-GPCR control
From the text: (§1) cDNAs encoding the cytoplasmic C-tail of 14 GPCRs and 2 one-transmembrane receptors were cloned into the pGEX-2T prokaryotic expression vector downstream the GST sequence. The following pGEX constructs were engineered: pGEX-DOR encoding residues 314–372 of the δ-opioid receptor (referring to Swiss-Prot accession number U10504), pGEX-MOR encoding residues 334–400 of the µ-opioid receptor (L29301), pGEX-KOR encoding residues 326–380 of the κ–opioid receptor (U17298), pGEX-ORL1 encoding residues 315–370 of the opioid receptor-like 1 (X77130), pGEX-M1 encoding residues 414–460 of the muscarinic M1 acetylcholine receptor (X52068), pGEX-M2 encoding residues 436–466 of the muscarinic M2 acetylcholine receptor (M16404), pGEX- ADRB1 encoding residues 373–477 of the β1 adrenergic receptor (J03019), pGEX-ADRB2 encoding residues 322–413 of the β2 adrenergic receptor (P07550), pGEX-CALCR encoding residues 407–490 of the calcitonin receptor (L00587), pGEX-CNR2 encoding residues 295–360 of the cannabinoid type 2 receptor (P34972), pGEX-5HT7 encoding residues 380–445 of the 5-hydroxytryptamine 7 receptor (L21195), pGEX-H2 encoding residues 284–349 of the histamine 2 receptor (S57565), pGEX-TXA2 encoding residues 304–343 of the α isoform of the thromboxane A2 receptor (D38081), pGEX-FZ4 encoding residues 493–537 of the frizzled 4 receptor (AB032417), pGEX-TGFβ encoding residues 805–849 of the type III transforming growth factor b receptor (L07594), pGEX-IGF1 encoding residues 1268–1367 of the insulin growth factor I receptor (X04434). Free GST was produced by using the pGEX-4T3 expression vector without insert. The same plasmid was used to clone the cDNA encoding a central domain of GASP-1, corresponding to amino acids 380 to 1073, downstream the GST sequence. All these plasmids were transformed into the Escherichia coli BL21 strain and expression was induced using 1mM of isopropylthiogalactoside for 2 h at 37°C. Bacteria were then pelleted, resuspended in PBS supplemented with cOmplete protease inhibitors (Roche), lysed at 1.5 kbar using a basic Z cell disrupter (constant system) and finally the lysates were cleared by centrifugation (10,000g, 15 min, 4°C).
(§2) cDNAs encoding GASP-1 and GASP-2 were cloned into the pcDNA3 eukaryotic expression vectors. cDNAs encoding GASP-3, -6, -7, and -9 were subcloned into pcDNA3.1 vectors. All the clones were controlled by DNA sequencing. The in vitro production was performed by using the TNT Quick-coupled Transcription/Translation T7 kit (Promega) in presence of [^35S]-Methionine according to the instructions from the manufacturer.
(§3) GST-fusion proteins were immobilized on glutathione-coupled Sepharose beads (GE Healthcare) for 1 h at 4°C and incubated with [^35S]-labelled in vitro translated GASP proteins or their truncated or mutated forms in ice-cold binding buffer containing: 20 mM Tris-HCl pH 7.4, 150 mM NaCl, 1 mM EDTA, 1 mM DTT, 10% glycerol and 1% Triton X-100. The mixture was incubated for 1 h at 4°C with gentle rocking. The beads were washed five times with the same ice-cold buffer, resuspended in 30 µl SDS-PAGE sample buffer, incubated 10 min at 65°C, and pelleted for 60 s at 3000 g. The supernatants were then analyzed by SDS-PAGE, the gels were stained with Coomassie blue to visualize GST-fusion proteins, dried and analyzed using a Phosphor-imager (Personal Molecular Imager FX, Biorad) to visualize [^35S]-labelled GASPs. Quantification was performed with the Quantity One software (Biorad). GST-pull down quantification data were analyzed using GraphPad Prism 4.03 (GraphPad Software). Quantifications presented are means of at least three independent experiments.

[2] = tested on: GST-fused IGF1 (insulin growth factor I receptor) C-tail; experiment: GST-pull down, IGF1 C-tail; conditions: non-GPCR control
From the text: as §1, §2, §3

[3] = tested on: GST-fused GPCR C-tails; experiment: GST-pull down, GPCR C-tails; conditions: for interaction with GPCR C-tails: twelve GPCR C-tails
From the text: as §1, §2
as §3, with “experiments. […]” for “experiments.”

[4] = tested on: GST-fused DOR C-tail; experiment: GST-pull down, DOR C-tail; conditions: compared with full-length GASP-1
From the text: as §1, §2, §3

Molecule	interaction with TGFβ C-tail [1]	interaction with IGF1 C-tail [2]	GASP input retained by GPCR C-tails ([3]; percent of GASP input)	interaction with GPCR C-tails [3]	interaction of truncated GASP-1 with DOR C-tail [4]
GASP-2: member of the GASP family, two GASP motifs (protein, [35S]-methionine labelled) MTGAEIEPSAQAKPEKKAGEEVIAGPERENDVPLVVRPKVRTQATTGARPKTETKSVPAARPKTEAQAMSGARPKTEVQVMGGARPKTEAQGITGARPKTDARAVGGARSKTDAKAIPGARPKDEAQAWAQSEFGTEAVSQAEGVSQTNAVAWPLATAESGSVTKSKGLSMDRELVNVDAETFPGTQGQKGIQPWFGPGEETNMGSWCYSRPRAREEASNESGFWSADETSTASSFWTGEETSVRSWPREESNTRSRHRAKHQTNPRSRPRSKQEAYVDSWSGSEDEASNPFSFWVGENTNNLFRPRVREEANIRSKLRTNREDCFESESEDEFYKQSWVLPGEEANSRFRHRDKEDPNTALKLRAQKDVDSDRVKQEPRFEEEVIIGSWFWAEKEASLEGGASAICESEPGTEEGAIGGSAYWAEEKSSLGAVAREEAKPESEEEAIFGSWFWDRDEACFDLNPCPVYKVSDRFRDAAEELNASSRPQTWDEVTVEFKPGLFHGVGFRSTSPFGIPEEASEMLEAKPKNLELSPEGEEQESLLQPDQPSPEFTFQYDPSYRSVREIREHLRARESAESESWSCSCIQCELKIGSEEFEEFLLLMDKIRDPFIHEISKIAMGMRSASQFTRDFIRDSGVVSLIETLLNYPSSRVRTSFLENMIHMAPPYPNLNMIETFICQVCEETLAHSVDSLEQLTGIRMLRHLTMTIDYHTLIANYMSGFLSLLTTANARTKFHVLKMLLNLSENPAVAKKLFSAKALSIFVGLFNIEETNDNIQIVIKMFQNISNIIKSGKMSLIDDDFSLEPLISAFREFEELAKQLQAQIDNQNDPEVGQQS	no interaction was detected	no interaction was detected	> 10%	medium to strong interactions	–
GASP-7: member of the second GASP subfamily, without GASP motif (protein, [35S]-methionine labelled) MGRTREAGCVAAGVVIGAGACYCVYRLAWGRDENEKIWDEDEESTDTSEIGVETVKGAKTNAGAGSGAKLQGDSEVKPEVSLGLEDCPGVKEKAHSGSHSGGGLEAKAKALFNTLKEQASAKAGKGARVGTISGNRTLAPSLPCPGGRGGGCHPTRSGSRAGGRASGKSKGKARSKSTRAPATTWPVRRGKFNFPYKIDDILSAPDLQKVLNILERTNDPFIQEVALVTLGNNAAYSFNQNAIRELGGVPIIAKLIKTKDPIIREKTYNALNNLSVNAENQGKIKTYISQVCDDTMVCRLDSAVQMAGLRLLTNMTVTNHYQHLLSYSFPDFFALLFLGNHFTKIQIMKLIINFTENPAMTRELVSCKVPSELISLFNKEWDREILLNILTLFENINDNIKNEGLASSRKEFSRSSLFFLFKESGVCVKKIKALANHNDLVVKVKVLKVLTKL	No interaction was detected	No interaction was detected	–	weak to medium interactions and weak	–
mutant C: derived from mutant 924–1395 by deletion of 45 AA from the C-terminus (protein, UniProt Q5JY77 924-1350, looked up, fragment) CCVSKPEDDEEMIVESWFWSRDKAIKETGTVATCESKPENEEGAIVGSWFEAEDEVDNRTDNGSNCGSRTLADEDEAIVGSWFWAGDEAHFESNPSPVFRAICRSTCSVEQEPDPSRRPQSWEEVTVQFKPGPWGRVGFPSISPFRFPKEAASLFCEMFGGKPRNMVLSPEGEDQESLLQPDQPSPEFPFQYDPSYRSVQEIREHLRAKESTEPESSSCNCIQCELKIGSEEFEELLLLMEKIRDPFIHEISKIAMGMRSASQFTRDFIRDSGVVSLIETLLNYPSSRVRTSFLENMIRMAPPYPNLNIIQTYICKVCEETLAYSVDSPEQLSGIRMIRHLTTTTDYHTLVANYMSGFLSLLATGNAKTRFHVLKMLLNLSENLFMTKELLSAEAVSEFIGLFNREETNDNIQIVLAIFENIGNNIK	–	–	–	–	strong interaction
mutant D: derived from mutant 924–1395 by deletion of 95 AA from the C-terminus (protein, UniProt Q5JY77 924-1300, looked up, fragment) CCVSKPEDDEEMIVESWFWSRDKAIKETGTVATCESKPENEEGAIVGSWFEAEDEVDNRTDNGSNCGSRTLADEDEAIVGSWFWAGDEAHFESNPSPVFRAICRSTCSVEQEPDPSRRPQSWEEVTVQFKPGPWGRVGFPSISPFRFPKEAASLFCEMFGGKPRNMVLSPEGEDQESLLQPDQPSPEFPFQYDPSYRSVQEIREHLRAKESTEPESSSCNCIQCELKIGSEEFEELLLLMEKIRDPFIHEISKIAMGMRSASQFTRDFIRDSGVVSLIETLLNYPSSRVRTSFLENMIRMAPPYPNLNIIQTYICKVCEETLAYSVDSPEQLSGIRMIRHLTTTTDYHTLVANYMSGFLSLLATGNAKTRFHVLKML	–	–	–	–	completely lost

— article PMC3575409, “Identification of a Novel Protein-Protein Interaction Motif Mediating Interaction of GPCR-Associated Sorting Proteins with G Protein-Coupled Receptors” (PLoS ONE, 2013)
